In assay [1] the target is T1, PSMA Fab (006 PSMA Fab), biotinylated (biotinylated (site and chain not stated)).
T1 construct: also called Anti-PSMA Fab; anti-PSMA Fab
Kind of assay: phage ELISA; biotinylated PSMA Fab on neutravidin plate, blocking buffer alone, bound phage detected with HRP anti-M13 antibody. (In general: ELISA stands for enzyme-linked immunosorbent assay.)

Assay [2] has as its target T1, PSMA Fab (006 PSMA Fab), biotinylated. Briefly: phage ELISA; biotinylated PSMA Fab on neutravidin plate, wells first incubated with PSMA antigen as competitor, HRP anti-M13 detection.
Procedure: (§1) Clonal phage were harvested as crude supernatants and screened via standard ELISAs. […] Prior to the addition of clonal phage. wells were incubated with blocking buffer and PSMA antigen or blocking buffer alone. Without washing or aspirating, clonal phage supernatants were then added to the wells and incubated for a short time. Wells were then washed followed by detection of bound phage using a horse radish conjugated anti-M13 antibody.
Assay [3] deals with T2, PSMA Fab (SEQ ID NOs: 19, 20) (biotinylated (site not stated)).
T2 construct: In the phage ELISA the biotinylated PSMA Fab was captured on neutravidin coated plates; also called Anti-PSMA Fab; 006 PSMA Fab
Kind of assay: clonal phage ELISA on captured biotinylated PSMA Fab, anti-M13-HRP detection, no PSMA antigen.

For assay [4], the target named is T2, PSMA Fab (SEQ ID NOs: 19, 20). Briefly: clonal phage ELISA on captured biotinylated PSMA Fab, anti-M13-HRP detection, competitor: PSMA antigen pre-incubated.
Procedure: as §1

B1: Phage-3611, clonal phage showing a Peptide-180 library peptide (peptide)
peptide: VDRLCMPIWMCEGL
notes: Tested as crude clonal phage supernatant; not shown: pIII filament protein of the bacteriophage, fused to the peptide
Regarding B1, the “Phage binding ELISA signal, Anti-PSMA Fab” value in assay [1] was determined as 1.58. In addition, the “Phage binding ELISA signal, Anti-PSMA Fab with PSMA antigen” value in assay [2] came to 0.0788.

B2: Phage-3614, clonal phage showing a Peptide-180 library peptide (peptide)
peptide: GWEWCIPEWMCTGL
notes: as for B1
With B2, the “Phage binding ELISA signal, Anti-PSMA Fab” value in assay [1] is 1.57. The “Phage binding ELISA signal, Anti-PSMA Fab with PSMA antigen” value in assay [2] came out at 0.0625.

B3: Phage-3610, clonal phage showing a Peptide-180 library peptide (peptide)
peptide: VQPACVPIWMCDGL
notes: as for B1
On to B3, for which the “Phage binding ELISA signal, Anti-PSMA Fab” value in assay [1] amounted to 1.58. Also, the “Phage binding ELISA signal, Anti-PSMA Fab with PSMA antigen” value in assay [2] stood at 0.0782.

Consider SNMVCIPSWMCNGF [Phage-3641], for which the “phage binding ELISA signal” value in assay [3] was 1.53; in assay [4] it was 0.0754.

For the molecule ELILCRPSWMCTGL [Phage-3632], the “phage binding ELISA signal” value in assay [3] was determined as 1.54; in assay [4], 0.0672.

B4: Phage-3617, clonal phage showing a Peptide-180 library peptide (peptide)
peptide: DFIRCSPIWMCDGF
notes: as for B1
Consider B4, for which, in assay [1], the “Phage binding ELISA signal, Anti-PSMA Fab” value turned out to be 1.57. In assay [2], the “Phage binding ELISA signal, Anti-PSMA Fab with PSMA antigen” value came out at 0.0807.

For the molecule YPPLCVPMWMCNGF [Phage-3639], the “phage binding ELISA signal” value in assay [3] is 1.53; in assay [4], 0.107.

B5: Phage-3616, clonal phage showing a Peptide-180 library peptide (peptide)
peptide: ESRLCVPMWMCSGF
notes: as for B1
For the molecule B5, the “Phage binding ELISA signal, Anti-PSMA Fab” value in assay [1] came out at 1.57. Besides, the “Phage binding ELISA signal, Anti-PSMA Fab with PSMA antigen” value in assay [2] is 0.0707.

B6: Phage-3615, clonal phage showing a Peptide-180 library peptide (peptide)
peptide: LDRLCLPQWMCVGM
notes: as for B1
For the molecule B6, the “Phage binding ELISA signal, Anti-PSMA Fab” value in assay [1] amounted to 1.57. Besides, the “Phage binding ELISA signal, Anti-PSMA Fab with PSMA antigen” value in assay [2] came to 0.0704.

On to VHQLCIPVWMCSGF [Phage-3638], for which the “phage binding ELISA signal” value was 1.53 in assay [3] and 0.0996 in assay [4].

B7: Phage-3613, clonal phage showing a Peptide-180 library peptide (peptide)
peptide: ETMRCEPSWMCIGL
notes: as for B1
For the molecule B7, the “Phage binding ELISA signal, Anti-PSMA Fab” value in assay [1] amounted to 1.57. Besides, the “Phage binding ELISA signal, Anti-PSMA Fab with PSMA antigen” value in assay [2] was 0.0724.

With VEPLCRPTWMCMSL [Phage-3636], the entries for the “phage binding ELISA signal” value in assay [3] and in assay [4] were 1.53 and 0.0766, respectively.

For the molecule LVNYCIPPWMCAGF [Phage-3631], the “phage binding ELISA signal” value was 1.54 in assay [3] and 0.093 in assay [4].

On to EVAMCKPLWMCSGF [Phage-3635], for which the “phage binding ELISA signal” value was 1.53 in assay [3] and 0.069 in assay [4].

For the molecule FPAMCKPSWMCTGF [Phage-3640], the results for the “phage binding ELISA signal” value in assay [3] and in assay [4] were 1.53 and 0.082, respectively.

For the molecule GTTWCVPTWMCEGL [Phage-3634], the “phage binding ELISA signal” value turned out to be 1.54 in assay [3] and 0.077 in assay [4].

B8: Phage-3612, clonal phage showing a Peptide-180 library peptide (peptide)
peptide: DPVMCMPRWMCDGF
notes: as for B1
For the molecule B8, the “Phage binding ELISA signal, Anti-PSMA Fab” value in assay [1] is 1.57. The “Phage binding ELISA signal, Anti-PSMA Fab with PSMA antigen” value in assay [2] is 0.0916.

SHALCRPAWMCMGL [Phage-3633]: the “phage binding ELISA signal” value is 1.54 in assay [3] and 0.0783 in assay [4].

Turning to AEVKCIPTWMCTGF [Phage-3637], the “phage binding ELISA signal” value in assay [3] came to 1.53; in assay [4], 0.079.

(Values after patent publication US20260242478A1 (published 2026).)
